Results published in publication PMC12923268, “JAZ2/JAZ4-MYC2.1 module mediates MeJA-induced alleviation of chilling injury in peach fruit (Prunus persica)”.

Legend:
PpMYC2.1 [1] = molecular target: T1, PpMYC2.1 (Prunus persica, UniProt A0A251P353 1-687); test: EMSA; Chemiluminescent EMSA Kit (Beyotime); buffer, salt, pH and temperature not stated; conditions: protein: recombinant; tags: His, SUMO (pET-SUMO); chain copies: 2; label: 3' biotin; blunt
PpMYC2.1 [2] = molecular target: T1, PpMYC2.1; test: competition; mutant competitor vs N3; failed to compete effectively; Chemiluminescent EMSA Kit (Beyotime); buffer, salt, pH and temperature not stated; conditions: protein: recombinant; tags: His, SUMO (pET-SUMO); chain copies: 2; blunt
PpMYC2.1 [3] = molecular target: T1, PpMYC2.1; test: competition; mutant competitor vs N5; failed to compete effectively; Chemiluminescent EMSA Kit (Beyotime); buffer, salt, pH and temperature not stated; conditions: protein: recombinant; tags: His, SUMO (pET-SUMO); chain copies: 2; blunt
PpMYC2.1 [4] = molecular target: T1, PpMYC2.1; test: competition; mutant competitor vs N1; failed to compete effectively; Chemiluminescent EMSA Kit (Beyotime); buffer, salt, pH and temperature not stated; conditions: protein: recombinant; tags: His, SUMO (pET-SUMO); chain copies: 2; blunt

T1 sequence (A0A251P353 entry or part of it): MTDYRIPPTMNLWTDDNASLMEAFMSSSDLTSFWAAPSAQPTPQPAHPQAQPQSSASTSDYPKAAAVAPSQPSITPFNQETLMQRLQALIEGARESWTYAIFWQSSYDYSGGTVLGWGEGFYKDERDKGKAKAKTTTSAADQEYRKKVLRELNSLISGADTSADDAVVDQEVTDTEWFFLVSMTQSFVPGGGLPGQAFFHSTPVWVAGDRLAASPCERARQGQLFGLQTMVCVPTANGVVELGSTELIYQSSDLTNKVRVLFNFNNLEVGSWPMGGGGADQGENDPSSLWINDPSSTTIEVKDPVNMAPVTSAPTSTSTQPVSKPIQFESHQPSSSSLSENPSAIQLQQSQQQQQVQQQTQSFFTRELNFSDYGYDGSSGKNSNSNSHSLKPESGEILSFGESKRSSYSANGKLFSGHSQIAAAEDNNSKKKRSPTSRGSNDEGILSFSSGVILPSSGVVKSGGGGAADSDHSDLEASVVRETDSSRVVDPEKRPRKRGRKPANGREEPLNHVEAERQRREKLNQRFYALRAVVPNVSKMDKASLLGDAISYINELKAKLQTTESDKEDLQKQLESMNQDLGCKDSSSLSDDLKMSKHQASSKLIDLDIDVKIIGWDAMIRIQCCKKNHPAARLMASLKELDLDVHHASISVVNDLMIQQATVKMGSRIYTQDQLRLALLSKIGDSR

Binder	binding result (PpMYC2.1 [1])	further results
PpHB.G7 probe (dsDNA) DNA 1: GTGGCGTGAGAACACGTGTGGCCGTTACGC DNA 2: GCGTAACGGCCACACGTGTTCTCACGCCAC	binds	–
PpCHS probe (dsDNA) DNA 1: AGAAAACCACGTGGGACAAAACCCTAGA DNA 2: TCTAGGGTTTTGTCCCACGTGGTTTTCT	binds	–
PpHB.G7 mut (dsDNA) DNA 1: GTGGCGTGAGAAAAAAAATGGCCGTTACGC DNA 2: GCGTAACGGCCATTTTTTTTCTCACGCCAC	–	binding result (PpMYC2.1 [2]): no binding
PpPL1 probe (dsDNA) DNA 1: CACACACTCACATGTTGCTAAATT DNA 2: AATTTAGCAACATGTGAGTGTGTG	binds	–
PpXTH2 probe (dsDNA) DNA 1: TGAGGCGCACATGGAACAAAATTAG DNA 2: CTAATTTTGTTCCATGTGCGCCTCA	binds	–
PpPG2 probe (dsDNA) DNA 1: GACAACAATTCCACATGTCCTATGTTTATTG DNA 2: CAATAAACATAGGACATGTGGAATTGTTGTC	binds	–
PpIAA1 mut (dsDNA) DNA 1: AGTAGTTGGAAAAAATTATAAATAATA DNA 2: TATTATTTATAATTTTTTCCAACTACT	–	binding result (PpMYC2.1 [3]): no binding
PpIAA1 probe (dsDNA) DNA 1: AGTAGTTGGCACGTGTTATAAATAATA DNA 2: TATTATTTATAACACGTGCCAACTACT	binds	–
PpERF61 probe (dsDNA) DNA 1: ACAAGTTGAGCATGTGTACCCAATTGCT DNA 2: AGCAATTGGGTACACATGCTCAACTTGT	binds	–
Pp4CL probe (dsDNA) DNA 1: GCATGGGACACACGTGTTCAAATACTTGTATGA DNA 2: TCATACAAGTATTTGAACACGTGTGTCCCATGC	binds	–
PpERF61 mut (dsDNA) DNA 1: ACAAGTTGAGAAAAAATACCCAATTGCT DNA 2: AGCAATTGGGTATTTTTTCTCAACTTGT	–	binding result (PpMYC2.1 [4]): no binding
PpCHI3 probe (PpCHI) (dsDNA) DNA 1: CATCTACCCACGTGTTCAACAATTCAA DNA 2: TTGAATTGTTGAACACGTGGGTAGATG	binds	–
PpPAL1 probe (dsDNA) DNA 1: GGCAACCACATGGATGAATTGTTAT DNA 2: ATAACAATTCATCCATGTGGTTGCC	binds	–
